Target: T1, wild-type human CCR7 (pcDNA3.1 Neo-hCCR7, 20100121357) (human, UniProt P32248 25-378)
T1 construct: Expressed on transfected 293T, CHO AM1/D or HEK293T cells; also called huCCR7; CCR7 receptor
T1 sequence: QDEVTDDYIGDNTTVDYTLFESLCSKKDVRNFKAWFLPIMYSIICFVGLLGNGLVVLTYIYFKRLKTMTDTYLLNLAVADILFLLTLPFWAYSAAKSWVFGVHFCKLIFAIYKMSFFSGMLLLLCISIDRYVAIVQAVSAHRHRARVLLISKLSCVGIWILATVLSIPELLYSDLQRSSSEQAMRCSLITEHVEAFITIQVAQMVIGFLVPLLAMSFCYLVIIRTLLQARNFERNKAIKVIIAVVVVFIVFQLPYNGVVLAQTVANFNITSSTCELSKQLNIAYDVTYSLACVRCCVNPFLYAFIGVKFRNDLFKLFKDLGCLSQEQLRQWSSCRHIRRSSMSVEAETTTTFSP
Experiment: flow cytometry on transfected 293T cells, PE secondary antibody, geo mean

B1: antibody 6B5.1 (antibody, human IgG2, lambda, V domains shown)
VH: QVQLVESGGGVVQPGRSLRLSCAASGFTFRSYGMHWVRQAPGKGLEWVAVIWYDGSKKYYADSVKGRFTISRDNSKNTLYLQMNRLRAEDTAVYYCARDGGIAVFLEDNWFDPWGQGTLVTVSS
VL: SYELTQPPSVSVSPGQRASITCSGDKLGDKYASWYQQKPGQSPLLVIYQDGKRPSGIPERFSGSNSGNTATLTISGTQAMDEADYYCQAWGSSTVIFGGGTKLTVLG
notes: Human antibody from XenoMouse hybridoma; Light = 18 and heavy = 50 is inferred from the order of the listing
  binding result: binds
